# Experimental data: US6080542A, “Plant peptide transport gene” (priority 1997, dated 2000)
# Where a SMILES comes first, the peptide text is derived from it. Where no end group is shown, it is not given here. [ ]: non-standard residue; d: D form. hCys = N[C@@H](CCS)C(=O)O; Eth = ethionine
# T1: Ala-Ala
# T1 peptide: AA
# T2: Ala-Ala-Ala
# T2 peptide: AAA
# T3: Met-Met
# T3 peptide: MM
# T4: Lys-Leu-Leu-Leu-Eth
# T4 peptide: KLLL-Eth
# T5: Lys-Leu-Leu-Ala-Eth
# T5 peptide: KLLA-Eth
# B1: ATPTR2Ap protein (other)
# chain: MSSIEEQITKSDSDFIISEDQSYLSKEKKADGSATINQADEQSSTDELQKSMSTGVLVNGDLYPSPTEEELATLPSVCGTIPWKAFIIIIVELCERFAYYGLTVPFQNYMQFGPKDATPGALNLGETGADGLSNFFTFWCYVTPVGAALIADQFLGRYNTIVCSAVIYFIGILILTCTAIPSVIDAGKSMGGFVVSLIIIGLGTGGIKSNVSPLMAEQLPKIPPYVKTKKNGSKVIVDPVVTTSRAYMIFYWTINVGSLSVLATTSLESTKGFVYAYLLPLCVFVIPLIILAVSKTAFTSTLLPPVPSLFVLVKCSSLLLKTNLISKKLNHLALLLLERYVKDQWDDLFIDELKRALRACKTFLFYPIYWVCYGQMTNNLISQAGQMQTGNVSNDLFQAFDSIALIIFIPICDNIIYPLLRKYNIPFKPILRITLGFMFATASMIYAAVLQAKIYQRGPCYANFTDTCVSNDISVWIQIPAYVLIAFSEIFASITGLEFAFTKAPPSMKSIITALFLFTNAFGAILSICISSTAVNPKLTWMYTGIAVTAFIAGIMFWVCFHHYDAMEDEQNQLEFKRNDALTKKDVEKEVHDSYSMADESQYNLEKANC
# Tests used:
# [1] = tested on: A. thaliana seeds; experiment: Seed germination with toxic peptides (minimum inhibitory concentration); assay type: in vivo, Arabidopsis thaliana; details: A. thaliana seeds
# Description: (§1) Thus, A. thaliana seeds and seedlings were exposed to Ethionine, Ala-Eth, Leu-Eth, Leu-fluorophenylalanine or oxalysine containing peptides, and the minimum inhibitory concentrations (MIC) were determined for each of the toxic compounds.
# To measure the minimum inhibitory concentration of the toxic peptides, 10 to 15 A. thaliara seeds were place on solid Arabidopsis growth media with decreasing concentrations of toxic peptide. The seeds were incubated for 4 days in the dark and then scored for germination.
# [2] = tested on: S288C; experiment: Toxic peptide disk assay, wild type; assay type: cell-based, Saccharomyces cerevisiae; details: disk with 0.38 μmoles, lawn of 5×10^6 cells, 30° C., 1 to 2 days, mean ± standard error
# Description: (§2) Since ptr mutants are deficient in peptide transport, they are unable to take up toxic peptides. This inability renders such mutants resistant to the toxic effect of the peptides. In order to determine whether the polynucleotides of the present invention could restore toxic peptide sensitivity to ptr2 mutants, the sensitivity of plasmid-transformed cells was determined. Sensitivity to toxic amino acids and peptides was measured as described by Island, M. D. et al. (J. Bacteriol. 169:2132-2136 (1987)). Briefly, a filter disk containing 0.38 μmoles of the toxic compound was placed on a lawn containing 5×10^6 cells and the plate incubated at 30° C. for 1 to 2 days. Resulting halos were measured across their diameter. The toxic dipeptides Leu-Eth, Ala-Eth, Leu-F-Phe and Oxalysine were synthesized by standard solution phase techniques (Naider, F. et al., J. Biol. Chem. 249:9-20 (1974). The results of this experiment are shown in Table 2 (values are the mean of the diameters of the observed zone of inhibition in millimeters±standard error of the mean of at least two independent experiments).
# [3] = tested on: A. thaliana seedlings; experiment: Root elongation of seedlings exposed to toxic peptides; assay type: in vivo, Arabidopsis thaliana
# Description: as §1
# Approximately 15 A. thaliana seeds were placed in a row at one end of 10 cm plate containing 20 ml of Arabidopsis growth media (Kranz and Kirchheim 1987). The seeds were incubated 3-5 days in the light with the plate set in an upright position. When the roots were approximately 1-2 cm long, sterile paper filter disks were placed immediately in front of the root tips on the right and left side of the plate 2 cm from the edge of the plate. A line was drawn across the plate using the top of the disks as a guide marking zero growth. 5 μl of toxic amino acid analog, toxic peptide, or toxic peptide plus competitor was added to one disk while H2 O was place on the other disk. The plates were incubated for an additional 3-5 days. The average length of the roots was measured from the line and the results expressed as a percentage of control root growth.
# [4] = tested on: PB1X-9B (pPTF4); experiment: Toxic peptide disk assay, mutant with plant gene ATPTR2A; assay type: cell-based, Saccharomyces cerevisiae
# Description: as §2
# [5] = tested on: PB1X-9B (pJP9); experiment: Toxic peptide disk assay, mutant with yeast peptide transport gene; assay type: cell-based, Saccharomyces cerevisiae; details: disk with 0.38 μmoles, lawn of 5×10^6 cells, 30° C., 1 to 2 days, mean ± standard error
# Description: as §2
# [6] = tested on: PB1X-9B(pJP2); experiment: Dipeptide utilization, L-alanyl-L-ethionine sensitivity and dileucine transport of secondary transformants; assay type: cell-based, Saccharomyces cerevisiae
# Description: Plasmid pJP2 was then reintroduced into PB1X-9B. The resulting secondary yeast transformants were tested for the ability to use a variety of dipeptides as sources of amino acids and for sensitivity to the toxic dipeptide L-alanyl-L-ethionine. Thus, strains were grown in YEPG broth at 30° C. to a titer of 10^8 cells per ml. The cells were harvested by centrifugation, washed twice with sterile water and resuspended at 1.0×10^7 cells per ml. A 5-μl aliquot was applied to solid MM containing dipeptides and amino acids as required. Four types of solid media were routinely used in assessing dipeptide utilization: MM+L-leucyl-L-leucine-L-lysine+L-histidine, MM-L-lysI-L-lysine-L-leucine-L-histidine (SEQ ID NO:12), MM-L-lysl-L-leucine-L-histidine, and MM-L-histydyl-L-leucine-L-lysine. All dipeptides were present at a concentration of 80 μM, while amino acids and nucleotide bases were added as required at standard concentrations (Sherman, F. et al., In: Methods in Yeast Genetics, Cold Spring Harbor Laboratory, Clod Spring Harbor, N.Y. (1986)). The plates were incubated at 30° C. for 48 hours and then scored for growth.
# [7] = molecular target: Leu-Eth
# [8] = molecular target: L-alanyl-L-ethionine
# [9] = molecular target: T1, Ala-Ala; experiment: cell-based or functional assay
# [10] = molecular target: T2, Ala-Ala-Ala; experiment: cell-based or functional assay
# [11] = molecular target: T3, Met-Met; experiment: cell-based or functional assay
# [12] = molecular target: Lys-Ala-Eth
# [13] = molecular target: Lys-Leu-Eth
# [14] = molecular target: Leu-F-Phe
# [15] = molecular target: Leu-Eth; remark: listed apart in the source
# [16] = molecular target: L-alanyl-L-ethionine; remark: listed apart in the source
# [17] = molecular target: Lys-Leu-Leu-Eth
# [18] = molecular target: Lys-Leu-Ala-Eth
# [19] = molecular target: T4, Lys-Leu-Leu-Leu-Eth; experiment: cell-based or functional assay
# [20] = molecular target: T5, Lys-Leu-Leu-Ala-Eth; experiment: cell-based or functional assay
molecule,measurement,setting,value
"CCSCC[C@H](NC(=O)[C@H](C)N)C(=O)O [Ala-Eth, L-alanyl-L-ethionine] (H-Ala-[hCys](Et)-OH)",amount that inhibits germination of seeds,[1],0.038 µmol
same,diameter of zone of inhibition,[2],33.5 ± 2.5 millimeters
same,amount that inhibits root elongation of seedlings,[3],0.038 µmol
same,sensitivity or resistance to toxic compound,[4],restores sensitivity
same,diameter of zone of inhibition,"[4]; disk with 0.38 μmoles, lawn of 5×10^6 cells, 30° C., 1 to 2 days, mean ± standard error",35.0 ± 1.0 millimeters
same,diameter of zone of inhibition,[5],42.5 ± 2.5 millimeters
same,sensitivity to toxic dipeptide,[6],sensitive
B1,inhibition of germination of A. thaliana seeds and of root elongation of seedlings,[7],0.038 µmol
same,inhibition of germination of A. thaliana seeds and of root elongation of seedlings,[8],0.038 µmol
same,reversal by a competitor peptide of the inhibition of A. thaliana root growth by Ala-Eth or Leu-Eth,[9],0 % of control root growth
same,reversal by a competitor peptide of the inhibition of A. thaliana root growth by Ala-Eth or Leu-Eth,[10],0 % of control root growth
same,reversal by a competitor peptide of the inhibition of A. thaliana root growth by Ala-Eth or Leu-Eth,[11],40 % of control root growth
same,"diameter of the zone of inhibition, disk assay with 0.38 µmoles",[12],37.5 mm
same,"diameter of the zone of inhibition, disk assay with 0.38 µmoles",[13],35 mm
same,"diameter of the zone of inhibition, disk assay with 0.38 µmoles",[14],37 mm
same,"diameter of the zone of inhibition, disk assay with 0.38 µmoles",[15],45 mm
same,"diameter of the zone of inhibition, disk assay with 0.38 µmoles",[16],35 mm
same,"diameter of the zone of inhibition, disk assay with 0.38 µmoles",[17],0 mm
same,"diameter of the zone of inhibition, disk assay with 0.38 µmoles",[18],0 mm
same,"diameter of the zone of inhibition, disk assay with 0.38 µmoles",[19],0 mm
same,"diameter of the zone of inhibition, disk assay with 0.38 µmoles",[20],0 mm
